Measurements reported in article PMC6931119.

Target: microtubules (human (endogenous in HEK293T)) (UniProt P68363)
Test: co-sedimentation; microtubule co-sedimentation assay of HEK293T cells with overexpressed Climp63-HA and GFP or GFP-Calu1; 37°C; P pellet = microtubule fraction, S supernatant = free tubulin fraction

Chain of UniProt P68363 (P68363 whole entry, chain 1 of 2): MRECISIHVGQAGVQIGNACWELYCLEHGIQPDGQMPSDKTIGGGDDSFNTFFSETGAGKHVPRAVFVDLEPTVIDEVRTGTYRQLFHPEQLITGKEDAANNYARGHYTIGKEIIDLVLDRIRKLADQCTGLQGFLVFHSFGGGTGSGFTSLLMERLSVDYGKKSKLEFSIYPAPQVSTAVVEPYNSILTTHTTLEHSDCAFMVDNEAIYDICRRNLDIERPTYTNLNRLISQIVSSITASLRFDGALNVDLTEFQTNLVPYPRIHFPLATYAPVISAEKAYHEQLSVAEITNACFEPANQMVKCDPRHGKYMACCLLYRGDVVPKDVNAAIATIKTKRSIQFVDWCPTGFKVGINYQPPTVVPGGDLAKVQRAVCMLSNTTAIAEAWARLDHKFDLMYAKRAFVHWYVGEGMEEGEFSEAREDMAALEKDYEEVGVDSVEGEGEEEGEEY
Chain of UniProt P68363 (P07437 whole entry, chain 2 of 2, further chain): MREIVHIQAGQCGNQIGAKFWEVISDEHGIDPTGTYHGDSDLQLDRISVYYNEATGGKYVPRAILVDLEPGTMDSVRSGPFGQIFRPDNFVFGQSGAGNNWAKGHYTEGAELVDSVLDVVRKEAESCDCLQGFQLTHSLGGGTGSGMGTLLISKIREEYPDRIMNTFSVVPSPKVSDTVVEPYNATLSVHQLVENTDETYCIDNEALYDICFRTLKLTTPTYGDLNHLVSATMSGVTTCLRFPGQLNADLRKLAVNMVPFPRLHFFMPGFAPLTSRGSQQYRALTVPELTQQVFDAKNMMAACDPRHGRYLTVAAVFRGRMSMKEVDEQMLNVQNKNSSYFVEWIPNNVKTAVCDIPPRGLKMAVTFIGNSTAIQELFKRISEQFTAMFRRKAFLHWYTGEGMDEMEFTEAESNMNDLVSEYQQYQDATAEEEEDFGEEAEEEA
Chain of Climp63-HA (Q07065 whole entry): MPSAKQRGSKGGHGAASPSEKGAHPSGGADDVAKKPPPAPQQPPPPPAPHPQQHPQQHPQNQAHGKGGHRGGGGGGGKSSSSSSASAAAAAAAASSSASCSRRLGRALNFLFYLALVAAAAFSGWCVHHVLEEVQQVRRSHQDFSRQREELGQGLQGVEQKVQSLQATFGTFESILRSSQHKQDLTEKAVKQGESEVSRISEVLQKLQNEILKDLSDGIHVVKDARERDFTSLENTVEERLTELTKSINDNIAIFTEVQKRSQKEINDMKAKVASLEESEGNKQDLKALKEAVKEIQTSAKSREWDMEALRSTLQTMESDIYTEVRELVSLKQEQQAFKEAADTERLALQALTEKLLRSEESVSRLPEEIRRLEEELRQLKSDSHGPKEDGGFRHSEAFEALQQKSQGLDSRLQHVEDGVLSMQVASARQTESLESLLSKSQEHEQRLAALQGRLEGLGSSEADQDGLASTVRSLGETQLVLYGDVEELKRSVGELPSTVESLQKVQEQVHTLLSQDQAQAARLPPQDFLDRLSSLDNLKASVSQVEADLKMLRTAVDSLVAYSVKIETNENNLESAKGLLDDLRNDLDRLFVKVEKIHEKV

percent of Climp63 in the pellet (microtubule fraction) at 37°C, GFP overexpressed: 60%
percent of Climp63 in the pellet (microtubule fraction) at 37°C, GFP-Calu1 overexpressed: 36%
Substance: Climp63-HA (from UniProt Q07065 1-602) (natural protein)
